Results on 4 molecules are retold here after PMC8900817, “Highlighting the factors governing transglycosylation in the GH5_5 endo-1,4-β-glucanase RBcel1” (Acta Crystallographica. Section D, Structural Biology, 2022).

Data set [1] addresses T1, RBcel1 (uncultured bacterium, UniProt Z9EI17H729, Y201F).
T1 sequence (Z9EI17H729 1-321 Y201F): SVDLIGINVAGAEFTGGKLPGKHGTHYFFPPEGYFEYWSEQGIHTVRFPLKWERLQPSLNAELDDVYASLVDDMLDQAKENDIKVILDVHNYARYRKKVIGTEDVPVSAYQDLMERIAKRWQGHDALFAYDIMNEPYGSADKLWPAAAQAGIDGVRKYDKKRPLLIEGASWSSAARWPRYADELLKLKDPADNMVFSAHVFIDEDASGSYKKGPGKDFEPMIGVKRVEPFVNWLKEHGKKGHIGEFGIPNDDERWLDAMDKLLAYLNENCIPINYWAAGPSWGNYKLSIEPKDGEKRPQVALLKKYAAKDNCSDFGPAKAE
The experiment in a line: X-ray crystal structure, […] Å. Particulars: co-crystal with 1 mM G3, pH 7; covalent to Glu245 (monomer D, occupancy 0.13); also +1 to +3 subsites (monomer C).

The target of data set [2] is T2, RBcel1 (uncultured bacterium, UniProt Z9EI17H729, E135Q).
T2 construct: 321 residues
T2 sequence (Z9EI17H729 1-321 E135Q): T1 sequence (Z9EI17H729 1-321 Y201F) with E135Q, F201Y
Nature of the data set: X-ray crystal structure, […] Å. Format: binding. Conditions: co-crystal with 1 mM G3, pH 7.4; subsites +1 to +3 (monomer A) and -4 to -2 (monomer B).

Substrate in data set [3]: O=[N+]([O-])c1ccc(O[C@@H]2O[C@H](CO)[C@@H](O[C@@H]3O[C@H](CO)[C@@H](O[C@@H]4O[C@H](CO)[C@@H](O)[C@H](O)[C@H]4O)[C@H](O)[C@H]3O)[C@H](O)[C@H]2O)c(Cl)c1
The experiment in a line: purified protein. The class given is biochemical, uncultured bacterium. Particulars: 20 mM sodium phosphate pH 6.5, 37°C.

Substrate in data set [4]: O=[N+]([O-])c1ccc(O[C@@H]2O[C@H](CO)[C@@H](O[C@@H]3O[C@H](CO)[C@@H](O[C@@H]4O[C@H](CO)[C@@H](O[C@@H]5O[C@H](CO)[C@@H](O)[C@H](O)[C@H]5O)[C@H](O)[C@H]4O)[C@H](O)[C@H]3O)[C@H](O)[C@H]2O)c(Cl)c1
The experiment in a line: purified protein. Format: biochemical, uncultured bacterium. Conditions: 20 mM sodium phosphate pH 6.5, 37°C, apparent parameters, text b31 prints µM, table mM (agrees with kcat/Km).

Substrate in data set [5]: O=[N+]([O-])c1ccc(O[C@@H]2O[C@H](CO)[C@@H](O[C@@H]3O[C@H](CO)[C@@H](O[C@@H]4O[C@H](CO)[C@@H](O[C@@H]5O[C@H](CO)[C@@H](O[C@@H]6O[C@H](CO)[C@@H](O)[C@H](O)[C@H]6O)[C@H](O)[C@H]5O)[C@H](O)[C@H]4O)[C@H](O)[C@H]3O)[C@H](O)[C@H]2O)c(Cl)c1
The experiment in a line: purified protein. Format: biochemical, uncultured bacterium. Conditions: 20 mM sodium phosphate pH 6.5, 37°C, apparent parameters, printed kcat disagrees with printed kcat/Km (tenfold).

The mark [6] stands for this setting: 36 µM enzyme, methods name the substrate ClPNP β-G1, results ClPNP β-G3.
Setting [7] is: apparent parameters, text b31 prints µM, table mM (agrees with kcat/Km).
The mark [8] stands for this setting: 22 µM enzyme, methods name the substrate ClPNP β-G1, results ClPNP β-G3.

Substitutions are numbered along the chain they refer to. In names and notes the source's numbering stands.

A word on the Km: it is the substrate concentration at which the rate is half of its maximum. Usually kcat stands for the maximal rate divided by the concentration of active sites. As a reminder, the kcat/Km is the second-order rate constant that governs catalysis at low substrate concentration.

For the molecule `OC[C@H]1O[C@@H](O[C@H]2[C@H](O)[C@@H](O)[C@H](O[C@H]3[C@H](O)[C@@H](O)C(O)O[C@@H]3CO)O[C@@H]2CO)[C@H](O)[C@@H](O)[C@@H]1O` (stereo partly shown) [G3, cellotriose], the “X-ray crystal structure, 1.75 Å” value on RBcel1 [1] is “G3 and G4 were placed in the negative subsites”. The “X-ray crystal structure, 1.73 Å” value at RBcel1 [2] is “each in complex with a differently positioned G3 molecule”.

B1: RBcel1 (uncultured bacterium; E135Q) (protein)
chain: T1 sequence (Z9EI17H729 1-321 Y201F) with E135Q, F201Y
notes: 321 residues
Take B1: in “purified protein [3]” (setting [6]), the Km was 263 ± 41 µM and the turnover number (kcat) was 0.219 ± 0.009 × 10^-3 min^-1.

B2: RBcel1 (uncultured bacterium) (protein)
chain: T1 sequence (Z9EI17H729 1-321 Y201F) with F201Y
notes: 321 residues
Turning to B2, in the data set “purified protein [4]”, the Km is 300 ± 30 µM, the kcat stood at 0.58 ± 0.01 s⁻¹ and the kcat/Km worked out at 1880 ± 190 M⁻¹ s⁻¹. Moreover, in the data set “purified protein [3]” (setting [7]), the Km is 2370 ± 260 µM, the kcat is 0.52 ± 0.02 s⁻¹ and the kcat/Km is 220 ± 20 M⁻¹ s⁻¹. Further, in “purified protein [5]”, the Km was determined as 340 ± 50 µM.

B3: RBcel1 (uncultured bacterium; Y201F) (protein)
chain: T1 sequence (Z9EI17H729 1-321 Y201F)
notes: 321 residues
As for B3, in the data set “purified protein [3]” (setting [8]), the Km worked out at 77 ± 10 µM and the kcat is given as 0.194 ± 0.023 × 10^-3 min^-1.
